Assay results from patent publication US20210238276A1 (INTEGRAL MOLECULAR, published 2021).

T1: hsGLUT4 I163A (human, UniProt P14672 1-509)
T1 sequence: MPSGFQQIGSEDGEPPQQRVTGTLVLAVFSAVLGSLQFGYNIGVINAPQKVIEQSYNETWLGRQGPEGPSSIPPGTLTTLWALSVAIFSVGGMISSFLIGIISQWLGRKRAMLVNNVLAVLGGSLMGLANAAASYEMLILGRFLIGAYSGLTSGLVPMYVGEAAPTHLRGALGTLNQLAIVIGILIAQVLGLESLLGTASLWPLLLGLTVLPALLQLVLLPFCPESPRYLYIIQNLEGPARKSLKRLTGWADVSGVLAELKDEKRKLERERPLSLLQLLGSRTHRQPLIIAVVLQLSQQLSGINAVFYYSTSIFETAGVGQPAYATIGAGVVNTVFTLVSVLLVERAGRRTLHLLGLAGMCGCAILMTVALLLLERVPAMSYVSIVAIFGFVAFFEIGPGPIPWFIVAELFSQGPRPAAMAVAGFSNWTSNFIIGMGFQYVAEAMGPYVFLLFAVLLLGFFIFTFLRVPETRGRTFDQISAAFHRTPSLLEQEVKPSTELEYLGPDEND

T2: hsGLUT4 Q295A (human, UniProt P14672 1-509)
T2 sequence: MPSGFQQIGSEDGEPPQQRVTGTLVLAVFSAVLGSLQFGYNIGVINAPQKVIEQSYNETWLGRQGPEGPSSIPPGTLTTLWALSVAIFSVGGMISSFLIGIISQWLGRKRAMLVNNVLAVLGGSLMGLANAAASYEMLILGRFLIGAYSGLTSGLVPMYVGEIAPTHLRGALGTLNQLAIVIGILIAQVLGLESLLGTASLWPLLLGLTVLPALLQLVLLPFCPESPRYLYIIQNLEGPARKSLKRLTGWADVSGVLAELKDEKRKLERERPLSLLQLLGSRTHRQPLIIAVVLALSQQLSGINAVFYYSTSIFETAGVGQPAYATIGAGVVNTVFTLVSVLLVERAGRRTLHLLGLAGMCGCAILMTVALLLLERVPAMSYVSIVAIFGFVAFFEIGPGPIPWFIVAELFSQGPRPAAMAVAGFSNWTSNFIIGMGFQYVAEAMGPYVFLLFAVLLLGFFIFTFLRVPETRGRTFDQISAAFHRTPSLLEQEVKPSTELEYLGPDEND

T3: hsGLUT4 S310A (human, UniProt P14672 1-509)
T3 sequence: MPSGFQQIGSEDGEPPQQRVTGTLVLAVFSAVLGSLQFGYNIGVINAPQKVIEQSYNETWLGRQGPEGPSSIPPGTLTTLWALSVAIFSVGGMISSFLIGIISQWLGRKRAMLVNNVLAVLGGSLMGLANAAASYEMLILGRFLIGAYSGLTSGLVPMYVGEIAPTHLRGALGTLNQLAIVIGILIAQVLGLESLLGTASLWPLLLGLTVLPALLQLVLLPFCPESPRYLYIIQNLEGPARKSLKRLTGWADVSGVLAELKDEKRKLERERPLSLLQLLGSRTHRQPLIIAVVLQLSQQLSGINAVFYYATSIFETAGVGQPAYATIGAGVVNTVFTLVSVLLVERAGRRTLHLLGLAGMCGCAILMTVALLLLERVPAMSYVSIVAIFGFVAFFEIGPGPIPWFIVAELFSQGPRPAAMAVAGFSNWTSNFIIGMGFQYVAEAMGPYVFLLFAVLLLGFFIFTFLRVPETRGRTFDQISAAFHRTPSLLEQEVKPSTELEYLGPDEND

T4: hsGLUT4 R265A (human, UniProt P14672 1-509)
T4 sequence: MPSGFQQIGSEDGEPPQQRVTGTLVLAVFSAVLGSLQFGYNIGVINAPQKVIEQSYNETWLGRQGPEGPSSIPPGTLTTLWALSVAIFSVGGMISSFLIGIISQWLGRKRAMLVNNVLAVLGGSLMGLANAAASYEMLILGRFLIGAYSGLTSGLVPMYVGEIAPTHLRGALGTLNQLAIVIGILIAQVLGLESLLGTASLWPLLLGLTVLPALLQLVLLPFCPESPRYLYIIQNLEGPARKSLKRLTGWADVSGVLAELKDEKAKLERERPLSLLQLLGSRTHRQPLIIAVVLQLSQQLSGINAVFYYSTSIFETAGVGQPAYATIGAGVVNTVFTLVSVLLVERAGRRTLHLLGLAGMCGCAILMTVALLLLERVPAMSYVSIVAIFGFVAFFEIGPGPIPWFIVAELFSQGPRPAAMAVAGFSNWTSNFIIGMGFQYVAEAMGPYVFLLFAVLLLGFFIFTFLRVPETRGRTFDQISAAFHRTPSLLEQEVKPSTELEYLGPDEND


Key:
Test in all cases: flow cytometry, alanine-scan library in HEK-293T
[1] = biological target: T1, hsGLUT4 I163A
Summary of the method: (§1)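 HEK-293T cells expressing individual GLUT4 alanine mutants were stained 48 h post-transfection with anti-GLUT4 scFv MAbs (2 μg/ml), then biotinylated secondary and streptavidin-PerCP, and read by high-throughput flow cytometry. Where used, cytochalasin B (10 uM final) was given for 30 min before and during primary antibody staining.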

[2] = biological target: T2, hsGLUT4 Q295A
Summary of the method: as §1

[3] = biological target: T3, hsGLUT4 S310A
Summary of the method: as §1

[4] = biological target: T4, hsGLUT4 R265A
Summary of the method: as §1

Molecule | % of binding to wild type GLUT4 [1] [%] | % of binding to wild type GLUT4 [2] [%] | % of binding to wild type GLUT4 [3] [%] | % of binding to wild type GLUT4 [4] [%]
1F8 (antibody) | 91 | 81 | 93 | 101
AB101 (scFv, Chicken-derived clone used as a control; the four lead clones were tested as scFv-human IgG1 Fc; also called MAb AB101) scFv: ALTQPSSVSANPGETVKITCSGSSNSYGWYQQKSPGSAPVTVIYYNDKRPSDIPSRFSGSKSDSTHTLTITGVRAEDEAVYFCGSYDSTYVGIFGAGTTLTVLGQSSRSSGGGGSSGGGGSAVTLDESGGGLQTPGGTLSLVCKASGFTFSSNAMGWVRQAPGKGLEWVAGISSDGRYTKYGSAVKGRATISRDNGQSTVRLQLNNLRAEDTGTYFCAKAFGNNYRRIYAGQIDAWGHGTEVIVSS | 115 | 102 | 101 | 91
AB108 (Fc fusion, Bivalent scFv-Fc; also called MAb AB108; not shown: Fc fragment of human IgG1, cloned in frame with the scFv) scFv: ALTQPSSVSANLGGTVKITCSGSSGSYGWYQQKAPGSAPVTLIYRNDKRPSDIPSRFSGSESGSTGTLTITGVQAEDEAVYFCGGYDSSAGYAAFGAGTTLTVLGQSSRSSGGGGSSGGGGSAVTLDESGGGLQTPGGALSLVCKASGFTFSSHGMGWVRQAPGKGLEWVGSISTGRYTFYAPAVKGRATISRDNGQSTLRLQLNNLRAEDTGTYYCTKCAGLNGCGGGEIDAWGHGTEVIVSS | 90 | 113 | 97 | 111
AB111 (Fc fusion, Bivalent scFv-Fc; also called MAb AB111; not shown: Fc fragment of human IgG1, cloned in frame with the scFv) scFv: ALTQPSSVSANPGETVKITCSGSGSWYGWFQQKSPGSAPVTVIYSNDKRPSDIPSRFSGSKSGSTSTLTITGVQVEDEAVYYCGNWDIFGAGTTLTVLGQSSRSSGGGGSSGGGGSAVTLDESGGGLQTPGGALSLVCKASGFTFSSHGMGWVRQAPGKGLEWVASISTGRYTFYAPAVKGRATISRDNGQSTVRLQLNNLRAEDTATYYCTKCAGLNGCGGGEIDAWGHGTEVIVSS | 87 | 138 | 130 | 143
